Earlier results in publication PMC9843440.

Target: IκBα (Homo sapiens) (UniProt P25963)
Chain of UniProt P25963 (P25963 whole entry): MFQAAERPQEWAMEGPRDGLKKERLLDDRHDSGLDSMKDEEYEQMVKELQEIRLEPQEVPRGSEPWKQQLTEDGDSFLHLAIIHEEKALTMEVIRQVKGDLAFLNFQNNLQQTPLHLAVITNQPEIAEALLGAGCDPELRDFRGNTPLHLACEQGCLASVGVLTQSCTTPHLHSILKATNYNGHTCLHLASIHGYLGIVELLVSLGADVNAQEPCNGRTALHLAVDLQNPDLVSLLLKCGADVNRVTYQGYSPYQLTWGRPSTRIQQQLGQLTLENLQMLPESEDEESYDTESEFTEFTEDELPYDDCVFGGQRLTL

## IKKβ (from UniProt O14920)
  Kd: 56 nM
